Patent US20250332277A1, “PROTEIN TYROSINE KINASE 7 ANTIBODIES AND ANTIBODY-DRUG CONJUGATES” (Eli Lilly and Company, priority 2024, published 2025)

Tests used:
[1] = system: HeLa PTK-7-eGFP overexpressing engineered cells; experiment: Internalization / lysosomal trafficking by pHrodo fluorescence imaging; format: cell-based, human; settings: 6 μg/ml (40 nM)
Protocol: Single clone HeLa PTK-7-eGFP overexpressing engineered cells were plated at 5,000 cells per well in a 384-well plate (PhenoPlate 384-well, black, optically clear flat-bottom, tissue-culture treated, PerkinElmer 6057308) in complete culture medium (DMEM, +10% FBS+Glutamax+Pen/Strep). Next day, the cells were treated with 6 μg/ml (40 nM) ADCs or antibodies and pHrodo labeling reagent (Zenon™ pHrodo™ iFL IgG labeling reagents, Catalog number: Z25612, Invitrogen™) with concentration of 6 μg/mL (120 nM). The ADCs or antibodies was mixed with pHrodo labeling reagent for at least 10 min prior to adding to the cells. Then, the cells were imaged using the Opera Phenix Plus high-content screening system every 90 min up to 24 hours. Data were processed and analyzed in Harmony and Microsoft Excel and graphed in GraphPad Prism.

[2] = system: OV90-human PTK7 cells; experiment: In vitro CDC assay with human serum complement; format: cell-based; settings: PTK-7 expressing OV90 cell line, 3 hours
Protocol: OV90 cell line was engineered to express high level of human PTK7, having antibody binding capacity of 500,000 (using MESF quantification kit, Bangs Laboratories). OV90-human PTK7 cells were added in white clear-bottom 96-well tissue culture plates in assay medium (1:1 MCDB105/Medium199+1×GlutaMax+15% Heat Inactivated Fetal Bovine Serum) and incubated in the incubator at 37° C. with 5% CO2 overnight. Next day, 50 μL/well antibodies were added at final working concentration from 200 nM, 1:3 serially diluted in assay medium and incubated at 37° C. with 5% CO2 for one hour. Diluted human serum complement (1:3) was then added at 50 μL/well in assay medium and incubated at 37° C. with 5% CO2 for 3 hours. Plate was read using CellTiter-Glo Luminescent Cell Viability Assay. 100 μL/well CellTiter-Glo reagent were incubated in plates at room temperature for 10 min. Luminescence was read on a SpectraMax M5e. RLUs (Relative Light Units) were obtained with SoftMax Pro 5.4. Percentage of cell killing was calculated against no treatment. Data was graphed and analyzed using GraphPad Prism version 9.5.1.

[3] = system: OVCAR-3 human ovarian cancer cells; experiment: Cell surface binding by flow cytometry, OVCAR3 (low expression); format: cell-based; settings: Cofetuzumab max MFI set at 100%
Protocol: (§1) Certain PTK-7 antibodies of the present disclosure were tested for cell surface binding to three PTK-7 expressing tumor cell lines. Cell lines were selected to represent high, medium, and low receptor densities. OV90-PTK-7, overexpressing engineered ovarian tumor line representing high expression, NCI-H446 human lung cancer cells representing medium endogenous expression and OVCAR-3 human ovarian cancer cells representing low endogenous expression. […] OV90 parental cells and Namalwa-luc-GFP cells were selected as the PTK-7 negative cell lines. Antibody binding was quantified via flow cytometry and both the EC50 of the binding curves and the maximum binding MFI for each antibody were recorded.
(§2) Cells were dissociated using non-enzymatic dissociation buffer for 5 min at 37° C. Cells were counted and aliquoted to a V-bottom polypropylene 96-well plate at 10^5 cells/well. Cells were centrifuged at 1800 rpm×3 min and the supernatant discarded. […]
(§3) Cells were acquired on an Attune Cytpix Cytometer and FCS files generated using Attune™ Cytometric Software (v. 6.0.1). FCS files were then analyzed on FlowJo (v10.8.1). […] Finally, dead cells positive for staining with Zombie Green were excluded and the MFIs of live, Alexa647 positive cells were quantified. Data was graphed and analyzed on GraphPad Prism (v10.1.1).

[4] = system: NCI-H446 human lung cancer cells; experiment: Cell surface binding by flow cytometry, NCI-H446 (medium expression); format: cell-based; settings: Cofetuzumab max MFI set at 100%
Protocol: as §1, §2, §3

[5] = system: OV90-PTK-7; experiment: Cell surface binding by flow cytometry, OV90-PTK-7 (high expression); format: cell-based, human; settings: Cofetuzumab max MFI set at 100%
Protocol: as §1, §2, §3

[6] = system: Namalwa-Luc-GFP cells co-cultured with OV90-PTK-7; experiment: Bystander effect on Namalwa-Luc-GFP co-cultured with OV90-PTK-7 (ONE-Glo); format: cell-based; settings: OV90-PTK-7 + Namalwa-Luc-GFP, ratio 2:1; 5-days treatment; Namalwa-Luc-GFP killing
Protocol: (§4) In flat clear bottom 96-well plates, OV90-PTK-7: Namalwa-Luc-GFP clone cells were mixed and seeded at a total of 3000 cells/well/100 μL with a ratio of 2:1 in culture medium (1:1 MCDB105: Medium 199+15% Heat Inactivated Fetal Bovine Serum+1×Glutamax). Namalwa-Luc-GFP cells were negative for PTK-7 expression. Plates were incubated at 37° C. with 5% CO2 overnight. Next day, ADCs were added at final working concentration from 50 nM, 1:4 serially diluted in culture medium. Plates were covered with Breathe-Easy® sealing membrane. Plates were read after 5-days treatment using ONE-Glo™ Luciferase Assay System. 100 μL/well ONE-Glo™ Assay reagent was incubated in plates at room temperature for 10 min. Luminescence was read in the SpectraMax M5e. RLUs (Relative Light Units) were obtained with SoftMax Pro 5.4. Percentage of Namalwa-Luc-GFP killing was calculated against no treatment as 0%. Data was graphed and analyzed using Graphpad Prism version v10.1.1. IC50 was determined via log (inhibitor) vs. response (three parameters) curve fitting for ADC cytotoxicity.

[7] = system: OVCAR-3; experiment: ADC cytotoxicity (CellTiter-Glo) on low PTK-7 expressing cells; format: cell-based, human; settings: 7 days treatment
Protocol: OVCAR3 cells were seeded in white clear-bottom 96-well tissue culture plates in culture medium (OVCAR3: ATCC modified RPMI 1640+1× GlutaMax+20% Heat Inactivated Fetal Bovine Serum+10 μg/mL bovine insulin). Cells were incubated at 37° C. with 5% CO2 overnight. Next day, ADCs were added at final working concentration from 200 nM, 1:4 serially diluted in culture medium. Plates were covered with Breathe-Easy® sealing membrane and incubated at 37° C. with 5% CO2. Plates were read after 7 days treatment using CellTiter-Glo Luminescent Cell Viability Assay. 100 μL/well CellTiter-Glo reagent were incubated in plates at room temperature for 10 min. Luminescence was read in the SpectraMax M5e. RLUs (Relative Light Units) were obtained with SoftMax Pro 5.4. Percentage of cell killing was calculated against no treatment as 0%. Data was graphed and analyzed using Graphpad Prism version v10.1.1. IC50 was determined via log (inhibitor) vs. response-variable slope (four parameters) curve fitting.

[8] = system: OVCAR3; experiment: OVCAR3 tumor xenograft model; format: in vivo, mice; settings: OVCAR3 (Day 61); single intravenous dose 2 mg/kg
Protocol: Tumors were measured biweekly using a digital caliper.

[9] = system: Namalwa-Luc-GFP cells co-cultured with NCI-H446; experiment: Bystander effect on Namalwa-Luc-GFP co-cultured with NCI-H446 (ONE-Glo); format: cell-based; settings: ratio 9:1, 7-days treatment, Namalwa-Luc-GFP killing
Protocol: as §4
In flat clear bottom 96-well plates, NCI-H446: Namalwa-Luc-GFP clone cells were mixed and seeded at a total of 5000 cells/well/100 μL with a ratio of 9:1 in culture medium (RPMI 1640+10% Heat Inactivated Fetal Bovine Serum+1× Glutamax+1 mM sodium pyruvate). […] Plates were read after 7-days treatment using ONE-Glo™ Luciferase Assay System.

B1: Ab4: fully human PTK-7 antibody, human IgG1-AAS (L234A/L235A/D265S), kappa; HC SEQ ID NO: 32, LC SEQ ID NO: 33 (antibody)
heavy: EVQLVESGGGLVKPGGSLRLSCAASGFTFSSYSMNWVRQAPGKGLEWVSSIDSSSSFIYYADSVKGRFTISRDNAKNSLYLQMNSLRAEDTAVYYCARGTGLFDFWGQGTLVTVSSASTKGPSVFPLAPSSKSTSGGTAALGCLVKDYFPEPVTVSWNSGALTSGVHTFPAVLQSSGLYSLSSVVTVPSSSLGTQTYICNVNHKPSNTKVDKRVEPKSCDKTHTCPPCPAPEAAGGPSVFLFPPKPKDTLMISRTPEVTCVVVSVSHEDPEVKFNWYVDGVEVHNAKTKPREEQYNSTYRVVSVLTVLHQDWLNGKEYKCKVSNKALPAPIEKTISKAKGQPREPQVYTLPPSREEMTKNQVSLTCLVKGFYPSDIAVEWESNGQPENNYKTTPPVLDSDGSFFLYSKLTVDKSRWQQGNVFSCSVMHEALHNHYTQKSLSLSPGK
light: EIVLTQSPGTLSLSPGERATLSCRASQSFSSSYLAWYQQKPGQAPRLLIYGASSRATGIPDRFSGSGSGTDFTLTISRLEPEDFAVYYCQQYGRTPWTFGQGTKVEIKRTVAAPSVFIFPPSDEQLKSGTASVVCLLNNFYPREAKVQWKVDNALQSGNSQESVTEQDSKDSTYSLSSTLTLSKADYEKHKVYACEVTHQGLSSPVTKSFNRGEC
- pHrodo intensity signal at 24 hrs ([1]; Antibodies): 2.83 ± 0.18

B2: Cofetuzumab: humanized anti-PTK-7 IgG1 antibody (hu6M024) with the sequence as disclosed in WO2012112943 (antibody, chains of the INN, looked up, V domains shown)
VH: QVQLVQSGPEVKKPGASVKVSCKASGYTFTDYAVHWVRQAPGKRLEWIGVISTYNDYTYNNQDFKGRVTMTRDTSASTAYMELSRLRSEDTAVYYCARGNSYFYALDYWGQGTSVTVSS
VL: EIVLTQSPATLSLSPGERATLSCRASESVDSYGKSFMHWYQQKPGQAPRLLIYRASNLESGIPARFSGSGSGTDFTLTISSLEPEDFAVYYCQQSNEDPWTFGGGTKLEIK
- CDC potential [2]: did not show CDC potential
- % of Cofetuzumab (Average Max MFI) [3]: 100%
- % of Cofetuzumab (Average Max MFI) [4]: 100%
- % of Cofetuzumab (Average Max MFI) [5]: 100%
- pHrodo intensity signal at 24 hrs ([1]; Antibodies): 2.44 ± 0.14

B3: Cofetuzumab-Pelidotin: ADC with a cleavable valine-citrulline linker, auristatin-0101 as the payload with a drug-to-antibody ratio (DAR) of 4 (conjugate, chains of the INN, looked up)
VH: QVQLVQSGPEVKKPGASVKVSCKASGYTFTDYAVHWVRQAPGKRLEWIGVISTYNDYTYNNQDFKGRVTMTRDTSASTAYMELSRLRSEDTAVYYCARGNSYFYALDYWGQGTSVTVSS
VL: EIVLTQSPATLSLSPGERATLSCRASESVDSYGKSFMHWYQQKPGQAPRLLIYRASNLESGIPARFSGSGSGTDFTLTISSLEPEDFAVYYCQQSNEDPWTFGGGTKLEIK
modifications: pelidotin: vc linker, auristatin-0101, DAR 4
- IC50 [6]: 1.5 nM
- IC50 [7]: 2.53 nM
- Mean tumor volume [8]: 352.26 mm^3
- pHrodo intensity signal at 24 hrs ([1]; ADCs): 1.71 ± 0.06
- IC50 [9]: 3.18 nM

B4: Ab1: fully human PTK-7 antibody, human IgG1-AAS (L234A/L235A/D265S), kappa; HC SEQ ID NO: 2, LC SEQ ID NO: 3 (antibody)
heavy: EVQLVESGGGLVKPGGSLRLSCAASGFTFSSYIMNWVRQAPGKGLEWVSSISSSSTFIYYADSVKGRFTISRDNAKNSLYLQMNSLRAEDTAVYYCAKGFDYWGQGTLVTVSSASTKGPSVFPLAPSSKSTSGGTAALGCLVKDYFPEPVTVSWNSGALTSGVHTFPAVLQSSGLYSLSSVVTVPSSSLGTQTYICNVNHKPSNTKVDKRVEPKSCDKTHTCPPCPAPEAAGGPSVFLFPPKPKDTLMISRTPEVTCVVVSVSHEDPEVKFNWYVDGVEVHNAKTKPREEQYNSTYRVVSVLTVLHQDWLNGKEYKCKVSNKALPAPIEKTISKAKGQPREPQVYTLPPSREEMTKNQVSLTCLVKGFYPSDIAVEWESNGQPENNYKTTPPVLDSDGSFFLYSKLTVDKSRWQQGNVFSCSVMHEALHNHYTQKSLSLSPGK
light: DIQLTQSPSFLSASVGDRVTITCRASQDISSYLVWYQQKPGKAPKLLIYAASTLQSGVPSRFSGSGSGTEFTLTISSLQPEDFATYYCQQLNTYPRTFGQGTKVEIKRTVAAPSVFIFPPSDEQLKSGTASVVCLLNNFYPREAKVQWKVDNALQSGNSQESVTEQDSKDSTYSLSSTLTLSKADYEKHKVYACEVTHQGLSSPVTKSFNRGEC
- pHrodo intensity signal at 24 hrs ([1]; Antibodies): 3.00 ± 0.1
